Data as given in US20020137113A1 (Genentech, published 2002).

Target: trkB.IgG (untagged trk.IgG fusion of the trkB extracellular domain and IgG-1 Fc) (human, UniProt Q16620 32-430)
Test: competitive displacement of iodinated NT5 from trkB.IgG in 293 cell supernatant

Chain of trkB.IgG (untagged trk.IgG fusion of the trkB extracellular domain and IgG-1 Fc) (Q16620 32-822): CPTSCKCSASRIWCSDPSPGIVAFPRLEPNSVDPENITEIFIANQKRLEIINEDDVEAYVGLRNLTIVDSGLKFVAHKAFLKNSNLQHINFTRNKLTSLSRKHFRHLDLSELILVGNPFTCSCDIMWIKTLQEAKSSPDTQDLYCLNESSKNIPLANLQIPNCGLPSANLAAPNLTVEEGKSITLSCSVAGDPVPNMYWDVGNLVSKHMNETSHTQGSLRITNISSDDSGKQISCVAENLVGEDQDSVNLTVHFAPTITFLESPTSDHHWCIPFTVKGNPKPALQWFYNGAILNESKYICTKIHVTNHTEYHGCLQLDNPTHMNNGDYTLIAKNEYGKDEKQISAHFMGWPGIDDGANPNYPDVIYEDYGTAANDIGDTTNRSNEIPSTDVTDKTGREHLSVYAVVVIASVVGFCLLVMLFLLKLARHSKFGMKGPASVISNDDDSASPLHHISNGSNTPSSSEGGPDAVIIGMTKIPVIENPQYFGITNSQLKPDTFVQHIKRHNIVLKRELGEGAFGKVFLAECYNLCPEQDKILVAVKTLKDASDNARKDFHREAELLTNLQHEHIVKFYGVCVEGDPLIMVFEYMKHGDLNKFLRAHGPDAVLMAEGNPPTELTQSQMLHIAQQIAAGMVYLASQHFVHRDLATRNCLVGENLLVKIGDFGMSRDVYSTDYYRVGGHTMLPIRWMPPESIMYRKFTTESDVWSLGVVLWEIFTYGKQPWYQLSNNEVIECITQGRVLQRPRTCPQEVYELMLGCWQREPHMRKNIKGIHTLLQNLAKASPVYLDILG

B1: neurotrophin 5 (NT5) (ligand, UniProt P34130 81-210, looked up)
chain: GVSETAPASRRGELAVCDAVSGWVTDRRTAVDLRGREVEVLGEVPAAGGSPLRQYFFETRCKADNAEEGGPGAGGGGCRGVDRRHWVSECKAKQSYVRALTADAQGRVGWRWIRIDTACVCTLLSRTGRA
notes: It is printed as NTS in several places, which I read as a misprint of NT5; The tracer in the displacement assay was the iodinated form; also called NTS
IC50: 0.0311 nM
